These results are taken from PMC5207153, “Differential Receptor Binding and Regulatory Mechanisms for the Lymphangiogenic Growth Factors Vascular Endothelial Growth Factor (VEGF)-C and -D*^([image sbox.jpg])” (The Journal of Biological Chemistry, 2016).

In assay [1] the target is T1, Recombinant human VEGFR-3-Fc chimera (human, UniProt P35916 25-775).
T1 construct: human VEGFR-3 part of the bought Fc chimera; source: bought: R&D Systems
T1 sequence (looked up): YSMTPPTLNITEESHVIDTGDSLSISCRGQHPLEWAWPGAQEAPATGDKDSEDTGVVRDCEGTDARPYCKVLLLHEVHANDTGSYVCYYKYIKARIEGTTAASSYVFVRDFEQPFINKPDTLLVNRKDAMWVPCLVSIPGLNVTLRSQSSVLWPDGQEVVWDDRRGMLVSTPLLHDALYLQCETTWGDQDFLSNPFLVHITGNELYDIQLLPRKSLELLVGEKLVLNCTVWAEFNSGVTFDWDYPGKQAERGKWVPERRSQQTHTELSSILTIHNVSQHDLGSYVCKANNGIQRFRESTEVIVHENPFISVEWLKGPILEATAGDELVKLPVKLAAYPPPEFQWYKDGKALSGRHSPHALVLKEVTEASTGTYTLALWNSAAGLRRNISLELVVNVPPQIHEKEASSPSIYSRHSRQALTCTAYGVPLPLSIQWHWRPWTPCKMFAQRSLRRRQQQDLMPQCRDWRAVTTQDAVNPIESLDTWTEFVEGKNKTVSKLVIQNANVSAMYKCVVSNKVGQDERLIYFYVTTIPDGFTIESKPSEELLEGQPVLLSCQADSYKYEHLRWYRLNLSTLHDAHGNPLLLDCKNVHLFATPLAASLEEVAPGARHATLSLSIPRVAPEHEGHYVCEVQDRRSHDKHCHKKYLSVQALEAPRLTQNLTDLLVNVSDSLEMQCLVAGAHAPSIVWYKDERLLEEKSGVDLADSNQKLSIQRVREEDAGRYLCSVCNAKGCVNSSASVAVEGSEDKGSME

The target in assay [2] is T2, Recombinant human VEGFR-2-Fc chimera (human, UniProt P35968 20-764).
T2 construct: human VEGFR-2 part of the bought Fc chimera; source: bought: R&D Systems
As to the kind of experiment: ELISA; plates coated with human VEGFR-2- or VEGFR-3-Fc chimera at 0.5 μg/ml in 100 mM carbonate buffer pH 9.5; blocked with 1% BSA in PBS, 0.1% Tween 20; 20 ng purified FLAG-tagged ligand in 100 μl PBS, 1 h, room temperature; bound ligand detected with M2-HRP; result as percent of VEGF-DΔNΔC. The following applies: both partners purified. Background: In an ELISA, binding on a coated surface is turned into a signal by an enzyme label.

Assay [3] has as its target T1, Recombinant human VEGFR-3-Fc chimera. Described as above. Particulars: both partners purified.

T2 sequence (P35968 20-764, change not shown): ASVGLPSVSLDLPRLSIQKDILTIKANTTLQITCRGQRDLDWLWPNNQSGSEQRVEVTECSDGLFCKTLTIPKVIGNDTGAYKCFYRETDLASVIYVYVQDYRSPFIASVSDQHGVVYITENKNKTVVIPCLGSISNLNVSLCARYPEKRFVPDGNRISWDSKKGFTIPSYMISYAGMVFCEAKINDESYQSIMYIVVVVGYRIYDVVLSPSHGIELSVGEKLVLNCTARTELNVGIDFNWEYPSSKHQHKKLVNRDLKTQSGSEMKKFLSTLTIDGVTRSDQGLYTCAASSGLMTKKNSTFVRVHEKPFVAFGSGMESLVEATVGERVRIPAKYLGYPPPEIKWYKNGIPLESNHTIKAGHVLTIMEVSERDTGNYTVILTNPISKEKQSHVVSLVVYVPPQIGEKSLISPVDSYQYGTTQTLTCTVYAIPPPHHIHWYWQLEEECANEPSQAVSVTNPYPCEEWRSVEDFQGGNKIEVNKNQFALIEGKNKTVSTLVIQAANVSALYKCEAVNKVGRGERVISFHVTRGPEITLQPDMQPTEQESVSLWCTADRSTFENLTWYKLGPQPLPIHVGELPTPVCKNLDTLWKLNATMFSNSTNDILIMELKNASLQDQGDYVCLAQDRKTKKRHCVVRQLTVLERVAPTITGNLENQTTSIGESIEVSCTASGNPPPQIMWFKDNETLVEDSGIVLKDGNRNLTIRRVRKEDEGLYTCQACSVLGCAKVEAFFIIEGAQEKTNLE

As to “VEGF-CΔNΔC (from UniProt P49767 102-229) (ligand)”, the titration of ligand in the bioassay of VEGFR-3 binding and cross-linking; potency relative to VEGF-DΔNΔC (Fig. 6C) in assay [1] was found to be 10 fold.

B1: VEGF-DΔNΔC (ligand, human, UniProt O43915 93-201, looked up)
chain: FYDIETLKVIDEEWQRTQCSPRETCVEVASELGKSTNTFFKPPCVNVFRCGGCCNEESLICMNTSTSYISKQLFEISVPLTSVPELVPVKVANHTGCKCLPTAPRHPYS
notes: human VEGF-D, residues 93-201 (recombinant form of mature VEGF-D); also called mature human VEGF-D; source: 293-F cells, transiently transfected; purified from conditioned medium on M2 (anti-FLAG) gel; not shown: FLAG, N-terminal, kept
Regarding B1, the binding result in assay [2] and in assay [3] was “binds” throughout.

B2: VEGF-DΔNΔC W106A (ligand, human, UniProt O43915 93-201, looked up)
chain: FYDIETLKVIDEEAQRTQCSPRETCVEVASELGKSTNTFFKPPCVNVFRCGGCCNEESLICMNTSTSYISKQLFEISVPLTSVPELVPVKVANHTGCKCLPTAPRHPYS
notes: human VEGF-D, residues 93-201, W106A; source: 293-F cells, transiently transfected; purified from conditioned medium on M2 (anti-FLAG) gel; not shown: FLAG, N-terminal, kept
For B2, the binding result in assay [2] and in assay [3] was “binds” in each case.

B3: VEGF-DΔNΔC E105A (ligand, human, UniProt O43915 93-201, looked up)
chain: FYDIETLKVIDEAWQRTQCSPRETCVEVASELGKSTNTFFKPPCVNVFRCGGCCNEESLICMNTSTSYISKQLFEISVPLTSVPELVPVKVANHTGCKCLPTAPRHPYS
notes: human VEGF-D, residues 93-201, E105A; source: 293-F cells, transiently transfected; purified from conditioned medium on M2 (anti-FLAG) gel; not shown: FLAG, N-terminal, kept
Regarding B3, the binding result in assay [2] and in assay [3] was “binds” throughout.

B4: VEGF-DΔNΔC D95A (ligand, human, UniProt O43915 93-201, looked up)
chain: FYAIETLKVIDEEWQRTQCSPRETCVEVASELGKSTNTFFKPPCVNVFRCGGCCNEESLICMNTSTSYISKQLFEISVPLTSVPELVPVKVANHTGCKCLPTAPRHPYS
notes: human VEGF-D, residues 93-201, Asp95 to alanine; source: 293-F cells, transiently transfected; purified from conditioned medium on M2 (anti-FLAG) gel; not shown: FLAG, N-terminal, kept
For the molecule B4, the binding result in assay [2] is on record as “binds”.

B5: VEGF-DΔNΔC I102A (ligand, human, UniProt O43915 93-201, looked up)
chain: FYDIETLKVADEEWQRTQCSPRETCVEVASELGKSTNTFFKPPCVNVFRCGGCCNEESLICMNTSTSYISKQLFEISVPLTSVPELVPVKVANHTGCKCLPTAPRHPYS
notes: human VEGF-D, residues 93-201, I102A; source: 293-F cells, transiently transfected; purified from conditioned medium on M2 (anti-FLAG) gel; not shown: FLAG, N-terminal, kept
B5: the binding result in assay [2] and in assay [3] was “binds” throughout.

B6: VEGF-DΔNΔC L99A (ligand, human, UniProt O43915 93-201, looked up)
chain: FYDIETAKVIDEEWQRTQCSPRETCVEVASELGKSTNTFFKPPCVNVFRCGGCCNEESLICMNTSTSYISKQLFEISVPLTSVPELVPVKVANHTGCKCLPTAPRHPYS
notes: human VEGF-D, residues 93-201, L99A; source: 293-F cells, transiently transfected; purified from conditioned medium on M2 (anti-FLAG) gel; not shown: FLAG, N-terminal, kept
Take B6: the binding result in assay [2] is “binds”.

B7: VEGF-DΔNΔC F93A (ligand, human, UniProt O43915 93-201, looked up)
chain: AYDIETLKVIDEEWQRTQCSPRETCVEVASELGKSTNTFFKPPCVNVFRCGGCCNEESLICMNTSTSYISKQLFEISVPLTSVPELVPVKVANHTGCKCLPTAPRHPYS
notes: human VEGF-D, residues 93-201, Phe93 to alanine; source: 293-F cells, transiently transfected; purified from conditioned medium on M2 (anti-FLAG) gel; not shown: FLAG, N-terminal, kept
On to B7, for which the binding result in assay [2] is on record as “binds”.

B8: VEGF-DΔNΔC T98A (ligand, human, UniProt O43915 93-201, looked up)
chain: FYDIEALKVIDEEWQRTQCSPRETCVEVASELGKSTNTFFKPPCVNVFRCGGCCNEESLICMNTSTSYISKQLFEISVPLTSVPELVPVKVANHTGCKCLPTAPRHPYS
notes: human VEGF-D, residues 93-201, Thr98 to alanine; source: 293-F cells, transiently transfected; purified from conditioned medium on M2 (anti-FLAG) gel; not shown: FLAG, N-terminal, kept
Take B8: the binding result in assay [2] is recorded as “binds”.

B9: VEGF-DΔNΔC I96A (ligand, human, UniProt O43915 93-201, looked up)
chain: FYDAETLKVIDEEWQRTQCSPRETCVEVASELGKSTNTFFKPPCVNVFRCGGCCNEESLICMNTSTSYISKQLFEISVPLTSVPELVPVKVANHTGCKCLPTAPRHPYS
notes: human VEGF-D, residues 93-201, residue 96 (Ile) to alanine; source: 293-F cells, transiently transfected; purified from conditioned medium on M2 (anti-FLAG) gel; not shown: FLAG, N-terminal, kept
For the molecule B9, the binding result in assay [2] is on record as “binds”.

B10: VEGF-DΔNΔC Y94A (ligand, human, UniProt O43915 93-201, looked up)
chain: FADIETLKVIDEEWQRTQCSPRETCVEVASELGKSTNTFFKPPCVNVFRCGGCCNEESLICMNTSTSYISKQLFEISVPLTSVPELVPVKVANHTGCKCLPTAPRHPYS
notes: human VEGF-D, residues 93-201, Y94A; source: 293-F cells, transiently transfected; purified from conditioned medium on M2 (anti-FLAG) gel; not shown: FLAG, N-terminal, kept
As to B10, the binding result in assay [2] is “binds”.

B11: VEGF-DΔNΔC D103A (ligand, human, UniProt O43915 93-201, looked up)
chain: FYDIETLKVIAEEWQRTQCSPRETCVEVASELGKSTNTFFKPPCVNVFRCGGCCNEESLICMNTSTSYISKQLFEISVPLTSVPELVPVKVANHTGCKCLPTAPRHPYS
notes: human VEGF-D, residues 93-201, D103A; source: 293-F cells, transiently transfected; purified from conditioned medium on M2 (anti-FLAG) gel; not shown: FLAG, N-terminal, kept
As to B11, the binding result in assay [2] and in assay [3] was “binds” in each case.

B12: VEGF-DΔNΔC E97A (ligand, human, UniProt O43915 93-201, looked up)
chain: FYDIATLKVIDEEWQRTQCSPRETCVEVASELGKSTNTFFKPPCVNVFRCGGCCNEESLICMNTSTSYISKQLFEISVPLTSVPELVPVKVANHTGCKCLPTAPRHPYS
notes: human VEGF-D, residues 93-201, Glu97 to alanine; source: 293-F cells, transiently transfected; purified from conditioned medium on M2 (anti-FLAG) gel; not shown: FLAG, N-terminal, kept
For the molecule B12, in assay [2], the binding result is on record as “binds”.
